US8669345
One block for each substance: values may come before it.

Columns and labels:
[1] = biological target: sNogoR310-Fc (rat) (UniProt Q99M75); assay: SPA, unlabelled Nogo1-40 (x axis Nogo1-40 [M]) displacing 125I-Nogo1-40-C from sNogoR310-Fc; the unit stands on the axis, not in the table
[2] = biological target: sNgR310 (recombinant fragment of rat NgR1, aa 27-310) (rat) (UniProt Q99M75); assay: SPA, unlabelled Nogo66 (x axis Nogo66 Conc [M]) displacing 125I-Nogo66 from sNogoR310; Bound SPA cpm falls from about 2900 to about 2050; the unit stands on the axis, not in the table
sNgR310 (recombinant fragment of rat NgR1, aa 27-310) (rat), sequence (Q99M75 other isoform, or with tags, fused parts or gaps): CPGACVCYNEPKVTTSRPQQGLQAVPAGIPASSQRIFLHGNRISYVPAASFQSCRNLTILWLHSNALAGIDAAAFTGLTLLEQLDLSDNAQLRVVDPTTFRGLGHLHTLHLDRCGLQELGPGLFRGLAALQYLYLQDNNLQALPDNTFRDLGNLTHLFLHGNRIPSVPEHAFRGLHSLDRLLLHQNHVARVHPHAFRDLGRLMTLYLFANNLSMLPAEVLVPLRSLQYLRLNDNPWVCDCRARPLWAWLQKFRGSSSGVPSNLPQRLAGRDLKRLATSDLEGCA

[3] = biological target: Nogo1-40; assay: SPA competition: Ig-sNogoR1-310 added in rising amount [ug] against binding of 125I-Nogo1-40-C to sNogoR310
Nogo1-40, sequence (Q9NQC3 1055-1094): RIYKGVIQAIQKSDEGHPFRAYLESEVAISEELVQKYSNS

Nogo1-40 (peptide), sequence (Q9NQC3 1055-1094): as above
sNogoR310-Fc (rat), sequence (Q99M75 other isoform, or with tags, fused parts or gaps): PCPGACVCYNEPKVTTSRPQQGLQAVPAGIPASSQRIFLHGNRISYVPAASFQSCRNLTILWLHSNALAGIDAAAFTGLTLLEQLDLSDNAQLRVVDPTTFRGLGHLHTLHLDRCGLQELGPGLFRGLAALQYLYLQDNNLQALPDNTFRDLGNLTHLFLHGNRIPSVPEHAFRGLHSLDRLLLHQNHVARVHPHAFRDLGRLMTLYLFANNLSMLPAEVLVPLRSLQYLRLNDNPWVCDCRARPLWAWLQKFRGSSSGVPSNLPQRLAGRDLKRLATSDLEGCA

EC50 [1]: 120 nM
Substance: Nogo1-40 (peptide)

EC50 [2]: 303 nM
Substance: Nogo66 (ligand)

IC50 [3]: 100 nM
Substance: sNogoR310-Fc (from UniProt Q99M75 26-310) (Fc fusion)
